# Test results reported in publication PMC9482650, “Quantitative fragmentomics allow affinity mapping of interactomes” (Nature Communications, 2022).
# T1: APBA1_2, Q02410
# T1 sequence (Q02410 742-832, limits assumed, looked up): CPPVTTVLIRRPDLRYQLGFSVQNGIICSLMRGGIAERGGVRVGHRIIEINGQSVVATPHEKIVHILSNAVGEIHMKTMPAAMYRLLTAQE
# T2: ARHGEF11, O15085
# T2 sequence (O15085 42-136, limits assumed, looked up): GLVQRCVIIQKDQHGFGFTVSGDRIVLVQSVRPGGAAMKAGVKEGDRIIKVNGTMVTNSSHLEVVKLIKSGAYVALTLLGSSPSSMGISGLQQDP
# T3: FRMPD1, Q5SYB0
# T3 sequence (Q5SYB0 52-145, limits assumed, looked up): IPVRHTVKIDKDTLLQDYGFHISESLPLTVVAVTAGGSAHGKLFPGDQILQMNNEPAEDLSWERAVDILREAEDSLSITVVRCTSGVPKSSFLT
# T4: GRIP1_3, Q9Y3R0
# T4 sequence (Q9Y3R0 247-346, limits assumed, looked up): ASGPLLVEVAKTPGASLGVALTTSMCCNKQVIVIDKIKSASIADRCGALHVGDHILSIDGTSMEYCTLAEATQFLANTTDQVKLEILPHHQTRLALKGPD
# T5: GRIP1_7, Q9Y3R0
# T5 sequence (Q9Y3R0 999-1096, limits assumed, looked up): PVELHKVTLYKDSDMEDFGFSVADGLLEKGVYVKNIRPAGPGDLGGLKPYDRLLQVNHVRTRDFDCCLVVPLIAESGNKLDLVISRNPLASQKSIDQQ
# T6: LIN7A, O14910
# T6 sequence (O14910 103-200, limits assumed, looked up): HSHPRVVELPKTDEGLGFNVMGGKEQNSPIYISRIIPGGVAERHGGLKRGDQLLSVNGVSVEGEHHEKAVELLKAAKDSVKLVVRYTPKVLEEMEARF
# T7: LIN7B, Q9HAP6
# T7 sequence (Q9HAP6 88-185, limits assumed, looked up): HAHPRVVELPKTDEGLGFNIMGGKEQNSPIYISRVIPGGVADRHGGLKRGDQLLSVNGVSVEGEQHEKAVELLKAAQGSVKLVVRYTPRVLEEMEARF
# T8: MPP2, Q14168
# T8 sequence (Q14168 180-250, limits assumed, looked up): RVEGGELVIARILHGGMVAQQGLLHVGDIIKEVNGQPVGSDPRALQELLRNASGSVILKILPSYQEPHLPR
# T9: PCLO, Q9Y6V0
# T9 sequence (Q9Y6V0 4491-4600, limits assumed, looked up): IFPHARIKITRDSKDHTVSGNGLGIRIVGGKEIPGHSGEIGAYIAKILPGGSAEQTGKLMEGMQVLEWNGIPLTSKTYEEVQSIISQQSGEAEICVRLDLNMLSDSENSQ
# T10: SNTG2, Q9NY99
# T10 sequence (Q9NY99 68-166, limits assumed, looked up): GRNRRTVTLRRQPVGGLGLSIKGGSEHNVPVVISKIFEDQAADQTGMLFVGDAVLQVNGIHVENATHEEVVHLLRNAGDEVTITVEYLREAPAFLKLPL
# T11: TX1BP3, O14907
# T11 sequence (O14907 10-122, limits assumed, looked up): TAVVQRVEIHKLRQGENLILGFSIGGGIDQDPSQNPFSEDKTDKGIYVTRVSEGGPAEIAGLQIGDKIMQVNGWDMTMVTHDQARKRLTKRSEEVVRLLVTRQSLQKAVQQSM
# Assays:
# Experiment in all cases: holdup assay
# Set-up in all cases: key: below the threshold = too weak to quantify, mostly under pKd 3.1 to 4
# AHNAK1, Q09666 = molecular target: AHNAK1, Q09666
# APBA1_2, Q02410 = molecular target: T1, APBA1_2, Q02410
# ARHGEF11, O15085 = molecular target: T2, ARHGEF11, O15085
# DLG1_1, Q12959 = molecular target: DLG1_1, Q12959
# DLG2_3, Q15700 = molecular target: DLG2_3, Q15700
# DLG4_2, P78352 = molecular target: DLG4_2, P78352
# FRMPD1, Q5SYB0 = molecular target: T3, FRMPD1, Q5SYB0
# FRMPD2_2, Q68DX3 = molecular target: FRMPD2_2, Q68DX3
# FRMPD4, Q14CM0 = molecular target: FRMPD4, Q14CM0
# GORASP2, Q9H8Y8 = molecular target: GORASP2, Q9H8Y8
# GRASP, Q7Z6J2 = molecular target: GRASP, Q7Z6J2
# GRID2IP_1, A4D2P6 = molecular target: GRID2IP_1, A4D2P6
# GRIP1_3, Q9Y3R0 = molecular target: T4, GRIP1_3, Q9Y3R0
# GRIP1_7, Q9Y3R0 = molecular target: T5, GRIP1_7, Q9Y3R0
# GRIP2_5, Q9C0E4 = molecular target: GRIP2_5, Q9C0E4
# Inadl_1, Q8NI35 = molecular target: Inadl_1, Q8NI35
# Inadl_10, Q8NI35 = molecular target: Inadl_10, Q8NI35
# LIN7A, O14910 = molecular target: T6, LIN7A, O14910
# LIN7B, Q9HAP6 = molecular target: T7, LIN7B, Q9HAP6
# MAGI2_3, Q86UL8 = molecular target: MAGI2_3, Q86UL8
# MPP2, Q14168 = molecular target: T8, MPP2, Q14168
# NHERF4_1, Q86UT5-2 = molecular target: NHERF4_1, Q86UT5-2
# NHERF4_4, Q86UT5 = molecular target: NHERF4_4, Q86UT5
# PCLO, Q9Y6V0 = molecular target: T9, PCLO, Q9Y6V0
# PTPN3, P26045 = molecular target: PTPN3, P26045
# SNTG2, Q9NY99 = molecular target: T10, SNTG2, Q9NY99
# TX1BP3, O14907 = molecular target: T11, TX1BP3, O14907
# [1] = plain residues with an end cap or a label only (N-terminal biotin on a linker: ttds)
# [2] = plain residues with an end cap or a label only (N-terminal biotin on a linker: ahx)
# Chain of PTPN3, P26045 (P26045 505-587): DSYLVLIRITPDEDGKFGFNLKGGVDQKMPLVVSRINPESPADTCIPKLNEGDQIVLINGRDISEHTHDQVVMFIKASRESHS
# Chain of AHNAK1, Q09666 (Q09666 4-100): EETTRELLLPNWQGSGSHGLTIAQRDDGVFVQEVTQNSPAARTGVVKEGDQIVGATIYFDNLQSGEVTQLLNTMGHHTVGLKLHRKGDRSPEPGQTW
# Chain of DLG4_2, P78352 (P78352 155-259): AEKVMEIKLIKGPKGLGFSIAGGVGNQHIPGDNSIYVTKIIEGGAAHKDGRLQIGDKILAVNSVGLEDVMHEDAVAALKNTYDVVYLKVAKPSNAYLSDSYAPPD
# Chain of GRASP, Q7Z6J2 (Q7Z6J2 96-193): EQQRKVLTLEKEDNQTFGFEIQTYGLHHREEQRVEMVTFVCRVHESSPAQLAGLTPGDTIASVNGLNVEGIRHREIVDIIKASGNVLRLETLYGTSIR
# Chain of GRID2IP_1, A4D2P6 (A4D2P6 1-87): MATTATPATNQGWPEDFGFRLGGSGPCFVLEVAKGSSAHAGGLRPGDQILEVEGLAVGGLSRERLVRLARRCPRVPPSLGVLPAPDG
# Chain of FRMPD4, Q14CM0 (Q14CM0 67-160): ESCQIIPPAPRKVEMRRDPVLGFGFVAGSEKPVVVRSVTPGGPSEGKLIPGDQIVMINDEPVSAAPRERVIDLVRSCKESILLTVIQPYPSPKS
# Chain of NHERF4_1, Q86UT5-2 (Q86UT5 other isoform, or with tags, fused parts or gaps): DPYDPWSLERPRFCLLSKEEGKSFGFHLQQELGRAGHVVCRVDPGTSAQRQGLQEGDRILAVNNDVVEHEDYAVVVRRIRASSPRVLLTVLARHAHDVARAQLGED
# Chain of Inadl_10, Q8NI35 (Q8NI35 1673-1763): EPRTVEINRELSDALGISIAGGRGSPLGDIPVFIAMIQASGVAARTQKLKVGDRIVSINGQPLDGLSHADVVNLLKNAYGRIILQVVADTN
# Chain of Inadl_1, Q8NI35 (Q8NI35 113-229): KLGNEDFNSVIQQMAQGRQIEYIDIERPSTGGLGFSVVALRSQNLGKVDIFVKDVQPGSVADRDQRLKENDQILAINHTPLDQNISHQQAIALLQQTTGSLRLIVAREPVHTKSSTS
# Chain of GRIP2_5, Q9C0E4 (Q9C0E4 544-642): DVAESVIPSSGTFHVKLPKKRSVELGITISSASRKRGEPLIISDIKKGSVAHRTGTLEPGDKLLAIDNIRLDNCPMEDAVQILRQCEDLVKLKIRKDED
# Chain of MAGI2_3, Q86UL8 (Q86UL8 600-682): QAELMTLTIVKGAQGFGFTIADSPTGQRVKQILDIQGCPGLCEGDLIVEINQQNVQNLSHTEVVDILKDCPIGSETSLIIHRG
# Chain of NHERF4_4, Q86UT5 (Q86UT5 464-550): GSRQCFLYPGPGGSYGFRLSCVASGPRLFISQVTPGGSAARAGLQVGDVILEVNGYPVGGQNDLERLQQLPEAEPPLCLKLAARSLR
# Chain of FRMPD2_2, Q68DX3 (Q68DX3 944-1038): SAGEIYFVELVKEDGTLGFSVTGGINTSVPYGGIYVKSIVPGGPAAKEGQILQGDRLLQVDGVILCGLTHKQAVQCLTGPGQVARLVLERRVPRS
binder,measurement,setting,value
"FVETQHQTQV [FAT3, Q8TDW7]",pKd,"AHNAK1, Q09666; [1]",3.52
same,pKd,"APBA1_2, Q02410; [1]",3.9
same,pKd,"ARHGEF11, O15085; [1]",4.22
same,pKd,"DLG1_1, Q12959; [1]",4.32
same,pKd,"DLG2_3, Q15700; [1]",3.59
same,pKd,"DLG4_2, P78352; [1]",4.57
same,pKd,"FRMPD1, Q5SYB0; [1]",below the threshold
same,pKd,"FRMPD2_2, Q68DX3; [1]",3.97
same,pKd,"FRMPD4, Q14CM0; [1]",below the threshold
same,pKd,"GORASP2, Q9H8Y8; [1]",below the threshold
same,pKd,"GRASP, Q7Z6J2; [1]",3.69
same,pKd,"GRID2IP_1, A4D2P6; [1]",below the threshold
same,pKd,"GRIP1_3, Q9Y3R0; [1]",3.62
same,pKd,"GRIP1_7, Q9Y3R0; [1]",below the threshold
same,pKd,"GRIP2_5, Q9C0E4; [1]",below the threshold
same,pKd,"Inadl_1, Q8NI35; [1]",below the threshold
same,pKd,"Inadl_10, Q8NI35; [1]",3.5
same,pKd,"LIN7A, O14910; [1]",below the threshold
same,pKd,"LIN7B, Q9HAP6; [1]",below the threshold
same,pKd,"MAGI2_3, Q86UL8; [1]",3.63
same,pKd,"MPP2, Q14168; [1]",below the threshold
same,pKd,"NHERF4_1, Q86UT5-2; [1]",below the threshold
same,pKd,"NHERF4_4, Q86UT5; [1]",below the threshold
same,pKd,"PCLO, Q9Y6V0; [1]",below the threshold
same,pKd,"PTPN3, P26045; [1]",4.12
same,pKd,"SNTG2, Q9NY99; [1]",3.82
same,pKd,"TX1BP3, O14907; [1]",4
"PKMKLNETSF [SHKBP1, Q8TBC3]",pKd,"AHNAK1, Q09666; [2]",below the threshold
same,pKd,"APBA1_2, Q02410; [2]",below the threshold
same,pKd,"ARHGEF11, O15085; [2]",below the threshold
same,pKd,"DLG1_1, Q12959; [2]",below the threshold
same,pKd,"DLG2_3, Q15700; [2]",below the threshold
same,pKd,"DLG4_2, P78352; [2]",below the threshold
same,pKd,"FRMPD1, Q5SYB0; [2]",below the threshold
same,pKd,"FRMPD2_2, Q68DX3; [2]",below the threshold
same,pKd,"FRMPD4, Q14CM0; [2]",below the threshold
same,pKd,"GORASP2, Q9H8Y8; [2]",below the threshold
same,pKd,"GRASP, Q7Z6J2; [2]",3.88
same,pKd,"GRID2IP_1, A4D2P6; [2]",below the threshold
same,pKd,"GRIP1_3, Q9Y3R0; [2]",below the threshold
same,pKd,"GRIP1_7, Q9Y3R0; [2]",below the threshold
same,pKd,"GRIP2_5, Q9C0E4; [2]",below the threshold
same,pKd,"Inadl_1, Q8NI35; [2]",below the threshold
same,pKd,"Inadl_10, Q8NI35; [2]",below the threshold
same,pKd,"LIN7A, O14910; [2]",below the threshold
same,pKd,"LIN7B, Q9HAP6; [2]",below the threshold
same,pKd,"MAGI2_3, Q86UL8; [2]",below the threshold
same,pKd,"MPP2, Q14168; [2]",below the threshold
same,pKd,"NHERF4_1, Q86UT5-2; [2]",3.73
same,pKd,"NHERF4_4, Q86UT5; [2]",below the threshold
same,pKd,"PCLO, Q9Y6V0; [2]",below the threshold
same,pKd,"PTPN3, P26045; [2]",4.68
same,pKd,"SNTG2, Q9NY99; [2]",below the threshold
same,pKd,"TX1BP3, O14907; [2]",below the threshold
"YNSFLSVTTV [PDZRN3, Q9UPQ7]",pKd,"AHNAK1, Q09666; [2]",3.53
same,pKd,"APBA1_2, Q02410; [2]",below the threshold
same,pKd,"ARHGEF11, O15085; [2]",4.06
same,pKd,"DLG1_1, Q12959; [2]",3.81
same,pKd,"DLG2_3, Q15700; [2]",4.06
same,pKd,"DLG4_2, P78352; [2]",4.15
same,pKd,"FRMPD1, Q5SYB0; [2]",below the threshold
same,pKd,"FRMPD2_2, Q68DX3; [2]",3.73
same,pKd,"FRMPD4, Q14CM0; [2]",below the threshold
same,pKd,"GORASP2, Q9H8Y8; [2]",4.33
same,pKd,"GRASP, Q7Z6J2; [2]",4.15
same,pKd,"GRID2IP_1, A4D2P6; [2]",below the threshold
same,pKd,"GRIP1_3, Q9Y3R0; [2]",below the threshold
same,pKd,"GRIP1_7, Q9Y3R0; [2]",below the threshold
same,pKd,"GRIP2_5, Q9C0E4; [2]",below the threshold
same,pKd,"Inadl_1, Q8NI35; [2]",3.82
same,pKd,"Inadl_10, Q8NI35; [2]",3.7
same,pKd,"LIN7A, O14910; [2]",below the threshold
same,pKd,"LIN7B, Q9HAP6; [2]",below the threshold
same,pKd,"MAGI2_3, Q86UL8; [2]",3.56
same,pKd,"MPP2, Q14168; [2]",below the threshold
same,pKd,"NHERF4_1, Q86UT5-2; [2]",below the threshold
same,pKd,"NHERF4_4, Q86UT5; [2]",3.49
same,pKd,"PCLO, Q9Y6V0; [2]",below the threshold
same,pKd,"PTPN3, P26045; [2]",3.48
same,pKd,"SNTG2, Q9NY99; [2]",3.81
same,pKd,"TX1BP3, O14907; [2]",below the threshold
"SRSRRRETAL [HPV33-E6, P06427]",pKd,"AHNAK1, Q09666; [1]",3.62
same,pKd,"APBA1_2, Q02410; [1]",below the threshold
same,pKd,"ARHGEF11, O15085; [1]",4.25
same,pKd,"DLG1_1, Q12959; [1]",4.5
same,pKd,"DLG2_3, Q15700; [1]",5.23
same,pKd,"DLG4_2, P78352; [1]",4.77
same,pKd,"FRMPD1, Q5SYB0; [1]",below the threshold
same,pKd,"FRMPD2_2, Q68DX3; [1]",below the threshold
same,pKd,"FRMPD4, Q14CM0; [1]",3.87
same,pKd,"GORASP2, Q9H8Y8; [1]",4.26
same,pKd,"GRASP, Q7Z6J2; [1]",3.49
same,pKd,"GRID2IP_1, A4D2P6; [1]",below the threshold
same,pKd,"GRIP1_3, Q9Y3R0; [1]",below the threshold
same,pKd,"GRIP1_7, Q9Y3R0; [1]",below the threshold
same,pKd,"GRIP2_5, Q9C0E4; [1]",below the threshold
same,pKd,"Inadl_1, Q8NI35; [1]",below the threshold
same,pKd,"Inadl_10, Q8NI35; [1]",below the threshold
same,pKd,"LIN7A, O14910; [1]",below the threshold
same,pKd,"LIN7B, Q9HAP6; [1]",3.72
same,pKd,"MAGI2_3, Q86UL8; [1]",below the threshold
same,pKd,"MPP2, Q14168; [1]",below the threshold
same,pKd,"NHERF4_1, Q86UT5-2; [1]",4.42
same,pKd,"NHERF4_4, Q86UT5; [1]",below the threshold
same,pKd,"PCLO, Q9Y6V0; [1]",below the threshold
same,pKd,"PTPN3, P26045; [1]",5.01
same,pKd,"SNTG2, Q9NY99; [1]",4.48
same,pKd,"TX1BP3, O14907; [1]",5.07
